Key:
[1] = molecular target: DL06-HA, full length HA of A/duck/Laos/3295/2006(H5N1) (clade 2.3.4) (influenza A virus A/duck/Laos/3295/2006(H5N1)); test: cell-based or functional assay
[2] = molecular target: Indo05-HA, full length HA of A/Indonesia/5/2005(H5N1) (clade 2.1) (influenza A virus A/Indonesia/5/2005(H5N1)); test: cell-based or functional assay
[3] = molecular target: VN04-HA, full length HA of A/Vietnam/1203/2004(H5N1) (clade 1) (influenza A virus A/Vietnam/1203/2004(H5N1)); test: cell-based or functional assay
[4] = molecular target: DL06-HA, full length HA of A/duck/Laos/3295/2006(H5N1) (clade 2.3.4) (influenza A virus A/duck/Laos/3295/2006(H5N1))
[5] = molecular target: Hatay04-HA, full length HA of A/chicken/Hatay/2004(H5N1) (clade 1) (influenza A virus A/chicken/Hatay/2004(H5N1))
[6] = molecular target: VN04-HA, full length HA of A/Vietnam/1203/2004(H5N1) (clade 1) (influenza A virus A/Vietnam/1203/2004(H5N1))

B1: xi-IgG1-9F4 (antibody, V domains shown)
V domain 1: QQSEAELARPGASVKMSCKASGFTLTTFTIHWVKQRPGQGLEWIGYINPRSGYTDYNQKFKDNTTLTVDKSSSTAYMQLSSLTSEDSAVFYCARSYYDYDVFDYWGQGTTLTV
V domain 2: DVQMTQSPSSLSASLGGKVTITCTARQDINKYIAWYQHKPGKGPRLLIHYTSTLQPGIPSRFSGSGSGTDYSFTISNLEPEDIATYYCLQYDNLVTFGGGTK
With B1 the IC50, entry of HA-pseudotyped lentiviral particles into MDCK cells (luciferase) [1] was 10 ng/mL, the reduction of HApp entry at the highest concentration tested [1] was 90% and the IC50, entry of HA-pseudotyped lentiviral particles into MDCK cells (luciferase) [2] was 10 ng/mL. The IC50, entry of HA-pseudotyped lentiviral particles into MDCK cells (luciferase) [3] was 10 ng/mL and the reduction of HApp entry at the highest concentration tested [3] was 90%.

B2: xi-IgA1-9F4 (antibody, V domains shown)
VH: QVQLQQSEAELARPGASVKMSCKASGFTLTTFTIHWVKQRPGQGLEWIGYINPRSGYTDYNQKFKDNTTLTVDKSSSTAYMQLSSLTSEDSAVFYCARSYYDYDVFDYWGQGTTLTVSS
VL: DVQMTQSPSSLSASLGGKVTITCTARQDINKYIAWYQHKPGKGPRLLIHYTSTLQPGIPSRFSGSGSGTDYSFTISNLEPEDIATYYCLQYDNLVTFGGGTKLELKR
B2 gave an endpoint titre [4] of 1250 ng/mL, an endpoint titre [5] of 1250 ng/mL and an endpoint titre [6] of 1250 ng/mL. For the same binder, the IC50, entry of HA-pseudotyped lentiviral particles into MDCK cells (luciferase) [3] was 100 ng/mL, the fold change of IC50 in the HApp neutralization assay against mouse-9F4 [3] was 10 fold and the inhibition of VN04-HApp entry at 1000 ng/ml [3] was 75%.
